Test [1] deals with T1, cynomolgus monkey CD8 on cynomolgus monkey T cells (cynomolgus monkey). Description: flow cytometry on cynomolgus monkey T cells. On the procedure: (§1) mAb1 and isotype control antibodies were 4 fold serially diluted in stain buffer (PBS containing 2% FBS) in either an 8-point titration for human CD8 positive T cells or 11 point titration for cynomolgus monkey T cells, starting at a concentration of 200 nM. A sample without primary antibody, stain buffer only, was also included as a control. Antibody titrations were plated out, 50 ul/well, into V-bottom microplates. Primary human and cynomolgus monkey T cells were stained for 15 minutes with LIVE/DEAD™ Fixable Violet Dead Cell Stain (Invitrogen) diluted 1:1000 in PBS. Cells were washed twice, and resuspended in PBS containing 2% FBS. To gate out CD4+ monkey T cells a CD4 antibody from BD Biosciences, that reacts with cynomolgus CD4+ T cells, was incubated with monkey T cells for 30 min on ice and cells were subsequently washed once with stain buffer. Human CD8 positive and monkey T cells in stain buffer were plated such that 50 ul of cell suspension, containing approximately 150,000 T cells, were added into wells of the 96-well V-bottom microplate containing the titrated antibodies. […] Samples were analyzed with the FlowJo10 software such that only viable, CD8 positive, single cells were evaluated for antibody binding.

Test [2] concerns the target T1, cynomolgus monkey CD8 on cynomolgus …. Description: flow cytometry on cynomolgus monkey T cells (CD4+ gated out), APC anti-mouse IgG secondary. On the procedure: as §1
For test [3], the target named is T2, human CD8 on cells (primary human CD8 positive T cells); T cells of mice expressing hCD8; human PBMC-derived … (human, UniProt P01732 22-235; P10966 22-210).
T2 construct: This is native CD8 on cells
Description: flow cytometry on primary human CD8 positive T cells, APC anti-mouse IgG secondary. On the procedure:
as §1

In test [4] the target is T2, human CD8 on cells (primary human CD8 …). Description: flow cytometry on primary human CD8 positive T cells. On the procedure:
Recombinant human IL-2 (50 IU/ml) was supplemented into culture media 72 hours post CD3/CD28 Dynabead incubation. When cells had expanded to the necessary cell number for flow cytometry analysis, the Dynabeads were removed by magnetic separation and cells were immediately used to determine the binding of CD8 antibodies or isotype controls.
as §1, with “buffer.” for “buffer. Human CD8 positive and monkey T cells in stain buffer were plated such that 50 ul of cell suspension, containing approximately 150,000 T cells, were added into wells of the 96-well V-bottom microplate containing the titrated antibodies.”

Test [5] concerns the target T1, cynomolgus monkey CD8 on cynomolgus …. Put plainly: flow cytometry (geometric MFI of APC, secondary APC goat anti-mouse IgG) on cynomolgus monkey T cells gated on CD8 positive cells; four-parameter fit; unit taken from the axis 'Concentration of Antibody Log (M)' [panel Cynomolgus Monkey T-cells, table under the plot]. On the procedure:
as §1

For test [6], the target named is T3, hCD8α with a C-terminal myc-myc-polyhistidine tag (hCD8α.mmh, REGN3940) (human, UniProt P01732 22-182).
T3 construct: not shown: C-terminal myc-myc-polyhistidine tag
Description: SPR (Sierra Sensors MASS-1), mAb captured by anti-mouse Fc, hCD8α.mmh as analyte, 25°C. On the procedure: Equilibrium dissociation constants (KD values) for hCD8α.mmh binding to purified anti-CD8 mAbs were determined using a real-time surface plasmon resonance biosensor using a Sierra Sensors MASS-1 high-capacity amine sensor surface was derivatized by amine coupling with a polyclonal goat anti-mouse Fc antibody (GE, #BR-1008-38) to capture purified anti-CD8 mAbs. SPR binding studies were performed in a buffer composed of 0.01M HEPES pH 7.4, 0.15M NaCl, 3 mM EDTA, 0.05% v/v Surfactant P20 (HBS-ET running buffer). Different concentrations of hCD8α with a C-terminal myc-myc-polyhistidine tag (hCD8α.mmh, REGN3940) prepared in HBS-ET running buffer (ranging from 300 nM to 3.7 nM, 3-fold dilutions) were injected over the anti-CD8 mAb captured surface at a flow rate of 50 μL/minute. Association of hCD8α.mmh to the captured monoclonal antibody was monitored for 4 minutes and the dissociation of hCD8α.mmh in HBS-ET running buffer was monitored for 10 minutes. All of the binding kinetics experiments were performed at 25° C. Kinetic association (kₐ) and dissociation (kd) rate constants were determined by fitting the real-time sensorgrams to a 1:1 binding model using Scrubber 2.0c curve fitting software. Binding dissociation equilibrium constants (KD) and dissociative half-lives (t½) were calculated from the kinetic rate constants as: […]

For test [7], the target named is T2, human CD8 on cells (primary human CD8 …). Description: flow cytometry (geometric MFI of APC, secondary APC goat anti-mouse IgG) on primary human CD8 positive T cells; four-parameter fit; unit taken from the axis 'Concentration of Antibody Log (M)' [panel Human CD8+ T-cells, table under the plot]. On the procedure:
as §1

Test [8] deals with human CD8 alpha and beta subunit on JRT3.T3/AP1-Luc/CD28/CD8AB/1G4AB clone 18 reporter T cells (human, UniProt P01732 22-235; P10966 22-210). Description: cell-based or functional assay.
Sequence of human CD8 alpha and beta subunit on JRT3.T3/AP1-Luc/CD28/CD8AB/1G4AB clone 18 reporter T cells (P01732 22-235, chain 1 of 2): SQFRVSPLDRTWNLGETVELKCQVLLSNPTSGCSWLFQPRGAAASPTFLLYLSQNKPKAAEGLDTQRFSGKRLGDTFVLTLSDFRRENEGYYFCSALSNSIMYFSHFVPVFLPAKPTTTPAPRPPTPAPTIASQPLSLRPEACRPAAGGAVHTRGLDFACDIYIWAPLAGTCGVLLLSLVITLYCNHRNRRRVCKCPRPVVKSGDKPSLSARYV
Sequence of human CD8 alpha and beta subunit on JRT3.T3/AP1-Luc/CD28/CD8AB/1G4AB clone 18 reporter T cells (P10966 22-210, chain 2 of 2): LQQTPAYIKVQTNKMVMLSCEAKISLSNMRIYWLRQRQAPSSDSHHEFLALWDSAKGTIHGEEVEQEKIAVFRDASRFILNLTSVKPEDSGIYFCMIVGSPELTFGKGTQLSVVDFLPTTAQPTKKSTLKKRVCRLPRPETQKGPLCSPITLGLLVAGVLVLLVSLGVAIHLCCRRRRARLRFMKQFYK

T3 sequence (P01732 22-182 limits assumed): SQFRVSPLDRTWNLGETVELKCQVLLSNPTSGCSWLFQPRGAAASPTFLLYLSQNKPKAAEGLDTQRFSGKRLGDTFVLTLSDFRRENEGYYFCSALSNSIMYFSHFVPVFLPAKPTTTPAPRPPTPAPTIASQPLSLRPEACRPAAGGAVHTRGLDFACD
T2 sequence (P01732 22-235, chain 1 of 2): as the sequence (P01732 22-235, chain 1 of 2) above
T2 sequence (P10966 22-210, chain 2 of 2): as the sequence (P10966 22-210, chain 2 of 2) above

B1: mAb1 (anti-CD8 monoclonal antibody) (antibody, V domains shown)
VH: QVQLVESGGGVDQPGRSLRLSCAASGFIFSNYGIHWVRQAPGKGLEWVAVIWYDGSNKYFEDSVKGRFNISRDNSKNIVYLQMNSLRAEDTAVYFCARSYDMLTGSGDYYGLDVWGQGTTVTVSS
VL: DIQMTQSPSSLSASVGDRVTITCRASQDITNYLAWFQQKPGKAPKSLIYGASSLQSGVPSKFSGSGSGTDFTLTISSLQPEDFATYYCQQYNNYPLTFGGGTKVEIK
notes: It was captured by anti-mouse Fc in SPR and detected with anti-mouse IgG in flow cytometry; It is tied here because mAb1 is the only exemplary antibody; also called H2aM25428N; mAb1-L1
B1: the “Fold Change (MFI compared to isotype control at 25 nM)” value in test [1] came out at 1480 fold. Also, the midpoint of the response in test [2], the EC50, lay at 0.33 nM. Besides, in test [3], it took 0.37 nM to reach a half-maximal effect (EC50). Also, the “Fold Change (MFI compared to isotype control antibody at 25 nM)” value in test [4] was 2780 fold. The molecule further registered an EC50 in test [5] of 0.329 nM. In addition, in test [6], the Kd came to 32.6 nM, the koff came to 0.00519 s⁻¹, the kon amounted to 159000 M⁻¹ s⁻¹ and the “t1/2” value was 2.2 min. Also, the response in test [7] was half-maximal at 0.369 nM (EC50). Moreover, the “IC50 [M], reduction of AP1-luciferase activity in CD8 T cell/APC luciferase assay” value in test [8] is 1.2e-09 M.
